Among the data in doi:10.1101/2025.03.20.644318, “Functional Spectrum of USP7 Pathogenic Variants in Hao-Fountain Syndrome: Insights into the Enzyme’s Activity, Stability, and Allosteric Modulation” (bioRxiv, 2025) are Kd values, retold here.

Assay [1] addresses T1, ubiquitin (UniProt P0CG48 1-76).
T1 construct: also called unlabeled ubiquitin
The assay is described as follows: NMR titration; unlabeled ubiquitin added stepwise to ~250 uM 15N-labeled USP7 catalytic domain up to 1:4 molar excess; 2D 1H-15N TROSY, six titration points, 800 MHz, 30 °C; 20 mM Tris pH 7.5, 100 mM NaCl, 2 mM DTT, 10% D2O; KD from nonlinear fit of total chemical shift changes against ubiquitin concentration. The following applies: both partners purified.

Assay [2] deals with T2, ubiquitin (UniProt P0CG48 1-76).
T2 construct: neither species nor source of the unlabeled ubiquitin is stated; also called unlabeled ubiquitin
The assay is described as follows: NMR titration; unlabeled ubiquitin added to ~250 uM 15N-labeled USP7 catalytic domain up to 1:4 molar excess of ubiquitin; 2D 1H-15N TROSY, six titration points; KD from fit of total chemical shift changes; 30°C; 20 mM Tris pH 7.5, 100 mM NaCl, 2 mM DTT, 10% D2O. To be noted: both partners purified.

Changes are numbered by the printed parent chain. In names and notes the source's numbering stands.

B1: USP7 catalytic domain (residues 207-560), wild type (domain or fragment, human, UniProt Q93009 207-560, looked up)
chain: SKKHTGYVGLKNQGATCYMNSLLQTLFFTNQLRKAVYMMPTEGDDSSKSVPLALQRVFYELQHSDKPVGTKKLTKSFGWETLDSFMQHDVQELCRVLLDNVENKMKGTCVEGTIPKLFRGKMVSYIQCKEVDYRSDRREDYYDIQLSIKGKKNIFESFVDYVAVEQLDGDNKYDAGEHGLQEAEKGVKFLTLPPVLHLQLMRFMYDPQTDQNIKINDRFEFPEQLPLDEFLQKTDPKDPANYILHAVLVHSGDNHGGHYVVYLNPKGDGKWCKFDDDVVSRCTKEEAIEHNYGGHDDDLSVRHCTNAYMLVYIRESKLSEVLQAVTDHDIPQQLVERLQEEKRIEAQKRKERQE
modifications: 15N-labeled
notes: also called WT; 15N USP7 (WT); source: E. coli BL21 (DE3), M9 minimal media with 15NH4Cl, purified (TALON cobalt resin, thrombin cleavage, SEC); not shown: His6, N-terminal, cleaved
Broadly, the Kd is the free concentration of one partner at which half of the binding sites on the other are occupied at equilibrium, for simple one-to-one binding. In the case of B1, the Kd with ubiquitin [1] turned out to be 160 ± 24.2 µM.

B2: E345K USP7 catalytic domain (residues 207-560) (domain or fragment, human, UniProt Q93009 207-560, looked up)
chain: B1 chain with E139K
notes: USP7 catalytic domain, residues 207-560, with the Hao-Fountain syndrome patient variant E345K; 15N-labelled in the NMR titrations; source: E. coli BL21 (DE3), purified (TALON cobalt resin, thrombin, SEC); M9 minimal media with 15NH4Cl for NMR, LB for enzyme assays; not shown: His6, N-terminal, cleaved
Consider B2, for which, in the assay with ubiquitin [2], the Kd is approximately 600 µM.

B3: USP7 catalytic domain (residues 207-560) G392D (domain or fragment, human, UniProt Q93009 207-560, looked up)
chain: B1 chain with G186D
modifications: 15N-labeled
notes: patient-derived variant; also called 15N USP7 (G392D); G392D USP7 catalytic domain; source: E. coli BL21 (DE3), M9 minimal media with 15NH4Cl, purified (TALON cobalt resin, thrombin cleavage, SEC); not shown: His6, N-terminal, cleaved
Regarding B3, in the assay with ubiquitin [1], the Kd was 33.6 ± 6.6 µM.

B4: USP7 catalytic domain (residues 207-560) K420E (domain or fragment, human, UniProt Q93009 207-560, looked up)
chain: B1 chain with K214E
modifications: 15N-labeled
notes: patient-derived variant; also called 15N USP7 (K420E); K420E USP7 catalytic domain; source: E. coli BL21 (DE3), M9 minimal media with 15NH4Cl, purified (TALON cobalt resin, thrombin cleavage, SEC); not shown: His6, N-terminal, cleaved
As for B4, the Kd in the assay with ubiquitin [1] came to 114 ± 8.8 µM.

B5: USP7 catalytic domain (residues 207-560) P273H (domain or fragment, human, UniProt Q93009 207-560, looked up)
chain: B1 chain with P67H
modifications: 15N-labeled
notes: patient-derived variant; also called 15N USP7 (P273H); P273H USP7 catalytic domain; source: E. coli BL21 (DE3), M9 minimal media with 15NH4Cl, purified (TALON cobalt resin, thrombin cleavage, SEC); not shown: His6, N-terminal, cleaved
B5: the Kd with ubiquitin [1] was found to be 82.5 ± 9.9 µM.

B6: USP7 catalytic domain (residues 207-560) Y331H (domain or fragment, human, UniProt Q93009 207-560, looked up)
chain: B1 chain with Y125H
modifications: 15N-labeled
notes: patient-derived variant; also called 15N USP7 (Y331H); Y331H USP7 catalytic domain; source: E. coli BL21 (DE3), M9 minimal media with 15NH4Cl, purified (TALON cobalt resin, thrombin cleavage, SEC); not shown: His6, N-terminal, cleaved
B6: in the assay with ubiquitin [1], the Kd was 26 ± 7.9 µM.

B7: USP7 catalytic domain (residues 207-560) N418S (domain or fragment, human, UniProt Q93009 207-560, looked up)
chain: B1 chain with N212S
modifications: 15N-labeled
notes: patient-derived variant; also called 15N USP7 (N418S); N418S USP7 catalytic domain; source: E. coli BL21 (DE3), M9 minimal media with 15NH4Cl, purified (TALON cobalt resin, thrombin cleavage, SEC); not shown: His6, N-terminal, cleaved
With B7, the Kd with ubiquitin [1] came to 73.4 ± 6.4 µM.

B8: USP7 catalytic domain (residues 207-560) G392A (domain or fragment, human, UniProt Q93009 207-560, looked up)
chain: B1 chain with G186A
modifications: 15N-labeled
notes: patient-derived variant; also called 15N USP7 (G392A); G392A USP7 catalytic domain; source: E. coli BL21 (DE3), M9 minimal media with 15NH4Cl, purified (TALON cobalt resin, thrombin cleavage, SEC); not shown: His6, N-terminal, cleaved
For the molecule B8, in the assay with ubiquitin [1], the Kd was 77.2 ± 4.7 µM.

B9: USP7 catalytic domain (residues 207-560) E345K (domain or fragment, human, UniProt Q93009 207-560, looked up)
chain: B1 chain with E139K
modifications: 15N-labeled
notes: patient-derived variant; also called 15N USP7 (E345K); E345K USP7 catalytic domain; source: E. coli BL21 (DE3), M9 minimal media with 15NH4Cl, purified (TALON cobalt resin, thrombin cleavage, SEC); not shown: His6, N-terminal, cleaved
On to B9, for which, in the assay with ubiquitin [1], the Kd worked out at 621 ± 56.6 µM.

B10: USP7 catalytic domain (residues 207-560) L373F (domain or fragment, human, UniProt Q93009 207-560, looked up)
chain: B1 chain with L167F
modifications: 15N-labeled
notes: patient-derived variant; also called 15N USP7 (L373F); L373F USP7 catalytic domain; source: E. coli BL21 (DE3), M9 minimal media with 15NH4Cl, purified (TALON cobalt resin, thrombin cleavage, SEC); not shown: His6, N-terminal, cleaved
For B10, in the assay with ubiquitin [1], the Kd is 108 ± 29.8 µM.

B11: USP7 catalytic domain (residues 207-560) V485G (domain or fragment, human, UniProt Q93009 207-560, looked up)
chain: B1 chain with V279G
modifications: 15N-labeled
notes: patient-derived variant; also called 15N USP7 (V485G); V485G USP7 catalytic domain; source: E. coli BL21 (DE3), M9 minimal media with 15NH4Cl, purified (TALON cobalt resin, thrombin cleavage, SEC); not shown: His6, N-terminal, cleaved
In the case of B11, the Kd in the assay with ubiquitin [1] is 171 ± 22.6 µM.

B12: USP7 catalytic domain (residues 207-560) M225I (domain or fragment, human, UniProt Q93009 207-560, looked up)
chain: B1 chain with M19I
modifications: 15N-labeled
notes: patient-derived variant; also called 15N USP7 (M225I); M225I USP7 catalytic domain; source: E. coli BL21 (DE3), M9 minimal media with 15NH4Cl, purified (TALON cobalt resin, thrombin cleavage, SEC); not shown: His6, N-terminal, cleaved
Turning to B12, in the assay with ubiquitin [1], the Kd was 91.6 ± 5.2 µM.
